In patent publication US20040053816A1 (COUNCIL OF SCIENTIFIC AND INDUSTRIAL RESEARCH, published 2004):

Molecular target: insulin receptor (IR) of carp adipocytes (carp Catla catla)
Assay: cell-based or functional assay

B1: Purified adipocyte insulin (Adplnsl) of the carp Catla catla (ligand)
chain 1: GIVEQCCHKPCSIFELQNYCN
chain 2: PGAPQHLCGSHLVDALYLVCGPTGFFYNPK
glucose uptake by adipocyte: 2 fold
